According to patent US20210292390A1, “CHIMERIC ANTIGEN RECEPTORS” (Oxford University Innovation Limited, priority 2016, published 2021):
Substitutions are numbered along the chain they refer to. Names and notes keep the numbering of the source. One block for each molecule: values may come before it.

Key:
primary T cells = assay: Intracellular IL-2 in primary T cells after antibody stimulation; type: cell-based
GADS = molecular target: T1, GADS (Homo sapiens, UniProt O75791); assay: Co-immunoprecipitation with CD6 constructs in Jurkat cells, Western blot; type: binding; settings: Jurkat cells treated with Na3VO4
T1 construct: endogenous in cells; host or cells: Jurkat cells
T1 sequence (O75791 1-330): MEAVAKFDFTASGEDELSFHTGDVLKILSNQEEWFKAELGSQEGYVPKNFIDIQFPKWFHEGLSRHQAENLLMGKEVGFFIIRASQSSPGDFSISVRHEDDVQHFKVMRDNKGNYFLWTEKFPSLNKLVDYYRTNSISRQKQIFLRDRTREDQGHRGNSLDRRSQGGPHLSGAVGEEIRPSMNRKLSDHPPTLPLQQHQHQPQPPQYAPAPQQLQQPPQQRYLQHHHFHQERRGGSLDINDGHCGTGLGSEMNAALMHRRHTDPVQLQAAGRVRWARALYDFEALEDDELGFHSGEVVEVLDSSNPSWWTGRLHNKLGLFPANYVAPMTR
Description: (§1) In FIG. 2(A) Lysate of 8×10^5 Jurkat cells treated with the phosphatase inhibitor Na3VO4 or immunoprecipitation samples of 3×10^6 cells were loaded on gels and after electrophoretic separation they were blotted on nitrocellulose membranes. The membranes were probed with the indicated antibodies and visualised using LI-COR western blotting. FIG. 2(B) illustrates Western Blot bands of three independent CD6 co-immunoprecipitations were quantified using the software ImageJ. Each co-immunoprecipitation value is divided by the intensity of the band in the lysate to compensate for differences in cell numbers used and is normalised to the intensity of EGFP in the co-immunoprecipitation divided by the intensity of EGFP in the lysate to compensate for different expression levels of the constructs. Samples were analysed using the unpaired Student t test comparing values of mutants to the VVT. n=3, error bars show the standard error of the mean, * p<0.05, ** p<0.01, ns=not significant.

SLP-76 = molecular target: T2, SLP-76 (Homo sapiens, UniProt Q13094); assay: as above; type: binding; settings: Jurkat cells treated with Na3VO4
T2 construct: endogenous in cells; host or cells: Jurkat cells
T2 sequence (Q13094 1-533): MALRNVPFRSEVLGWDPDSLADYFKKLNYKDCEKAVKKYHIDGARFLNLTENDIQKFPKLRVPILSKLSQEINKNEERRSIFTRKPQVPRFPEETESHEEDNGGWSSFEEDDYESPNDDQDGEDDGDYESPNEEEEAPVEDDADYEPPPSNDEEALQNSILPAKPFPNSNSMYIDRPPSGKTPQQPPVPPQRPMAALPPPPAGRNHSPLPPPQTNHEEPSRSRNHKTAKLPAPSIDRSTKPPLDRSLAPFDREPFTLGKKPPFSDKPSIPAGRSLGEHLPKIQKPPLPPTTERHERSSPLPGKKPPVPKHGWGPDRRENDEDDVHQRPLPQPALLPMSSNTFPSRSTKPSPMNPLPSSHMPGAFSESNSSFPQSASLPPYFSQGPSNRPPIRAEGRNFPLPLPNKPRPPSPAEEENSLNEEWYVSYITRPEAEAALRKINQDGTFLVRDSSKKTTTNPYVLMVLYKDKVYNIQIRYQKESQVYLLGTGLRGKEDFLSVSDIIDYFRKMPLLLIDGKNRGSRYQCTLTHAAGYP
Description: as §1

CD4+ T cells = assay: Primary T cell activation by CD69 expression after CD3 and CD6 antibody stimulation; type: cell-based; settings: CD3 antibodies and 5 μg/ml CD6 antibodies; three donors; versus untransduced cells
Protocol: CD4+ T cells were stimulated with CD3 antibodies and 5 μg/ml CD6 antibodies to crosslink transduced CD6.

[1] = molecular target: biotinylated CD6 peptide pY629 pY662 (human); assay: SPR (BIAcore 3000), equilibrium binding, biotinylated peptide on streptavidin CM5 chip, 15° C.
[2] = molecular target: biotinylated CD6 peptide pY629 Y662 (human); assay: as above
[3] = molecular target: biotinylated CD6 peptide pY629 pY662 (human); assay: SPR (BIAcore 3000), equilibrium binding, biotinylated peptide on streptavidin CM5 chip, 37° C.
[4] = molecular target: biotinylated CD6 peptide pY629 Y662 (human); assay: as above
2B4 Reay cells = assay: IL-2 secretion (ELISA) by hybridoma cells expressing chimeric receptors after CD6 crosslinking; type: cell-based, mouse
Description: The activity of the exemplary chimeric receptor was compared with that of a comparator chimeric receptor lacking the CD6-derived signalling region. Both chimeric receptor molecules contained the extracellular and transmembrane regions of human CD6 and the cytoplasmic region of mouse CD3 zeta. The exemplary chimeric receptor further comprised residues 623 to 668 from the C terminus of human CD6.
Murine T hybridoma cells were transduced to express either the exemplary or comparator chimeric receptors. Cells were assessed for their response to human CD6 monoclonal antibody immobilised on 96 well tissue culture plates. After incubation for 18 h at 37° C., the supernatants were analysed for the presence of mouse IL-2 by ELISA.
The activity of a comparator chimeric receptor (consisting of the extracellular region of human CD6 and the mouse CD3 zeta tail, effectively a first generation CAR in the cytoplasmic region) was investigated alongside the exemplary chimeric receptor illustrative of CARs or cells of the invention. […] The cells were stimulated with different concentrations of plate-bound T12.1 monoclonal antibody (mAb), a CD6 crosslinking antibody, overnight and secreted mouse IL-2 was measured by ELISA.

[5] = molecular target: biotinylated CD6 peptide Y629 pY662 (human); assay: SPR (BIAcore 3000), equilibrium binding, biotinylated peptide on streptavidin CM5 chip, 15° C.
[6] = molecular target: biotinylated CD6 peptide Y629 pY662 (human); assay: SPR (BIAcore 3000), equilibrium binding, biotinylated peptide on streptavidin CM5 chip, 37° C.

co-immunoprecipitation of GADS (GADS): almost no SLP-76 and GADS was detected
co-immunoprecipitation of SLP-76 (SLP-76): almost no SLP-76 and GADS was detected
B1: CD6 Y629F Y662F: mutant form of CD6 with both tyrosine residues Y629 and Y662 substituted (protein, UniProt P30203 1-668, looked up, variant Y629F Y662F)
chain: MWLFFGITGLLTAALSGHPSPAPPDQLNTSSAESELWEPGERLPVRLTNGSSSCSGTVEVRLEASWEPACGALWDSRAAEAVCRALGCGGAEAASQLAPPTPELPPPPAAGNTSVAANATLAGAPALLCSGAEWRLCEVVEHACRSDGRRARVTCAENRALRLVDGGGACAGRVEMLEHGEWGSVCDDTWDLEDAHVVCRQLGCGWAVQALPGLHFTPGRGPIHRDQVNCSGAEAYLWDCPGLPGQHYCGHKEDAGAVCSEHQSWRLTGGADRCEGQVEVHFRGVWNTVCDSEWYPSEAKVLCQSLGCGTAVERPKGLPHSLSGRMYYSCNGEELTLSNCSWRFNNSNLCSQSLAARVLCSASRSLHNLSTPEVPASVQTVTIESSVTVKIENKESRELMLLIPSIVLGILLLGSLIFIAFILLRIKGKYALPVMVNHQHLPTTIPAGSNSYQPVPITIPKEVFMLPIQVQAPPPEDSDSGSDSDYEHYDFSAQPPVALTTFYNSQRHRVTDEEVQQSRFQMPPLEEGLEELHASHIPTANPGHCITDPPSLGPQYHPRSNSESSTSSGEDYCNSPKSKLPPWNPQVFSSERSSFLEQPPNLELAGTQPAFSAGPPADDSSSTSSGEWFQNFQPPPQPPSEEQFGCPGSPSPQPDSTDNDDFDDISAA
percentage of IL-2 positive cells (primary T cells; CD3 antibodies but not CD6 antibodies): did not show a significantly increased level of T cell activation
percentage of IL-2 positive cells (primary T cells; both CD3 antibodies and CD6 antibodies, three donors): did not show a significantly increased percentage of IL-2 positive cells
percentage of CD69 positive cells (CD4+ T cells): no significant difference

Kd [1]: 140 to 2050 nM
Kd [2]: 150 to 620 nM
Kd [3]: 770 to 1580 nM
Kd [4]: 600 to 880 nM
B2: recombinant GADS SH2 domain (his-tagged) (protein, UniProt O75791 58-149, looked up)
chain: WFHEGLSRHQAENLLMGKEVGFFIIRASQSSPGDFSISVRHEDDVQHFKVMRDNKGNYFLWTEKFPSLNKLVDYYRTNSISRQKQIFLRDRT

B3: chimeric receptor of SEQ ID NO.4: human CD6 extracellular and transmembrane regions, mouse CD3 zeta cytoplasmic region, plus human CD6 C terminus (protein)
chain: MWLFFGITGLLTAALSGHPSPAPPDQLNTSSAESELWEPGERLPVRLTNGSSSCSGTVEVRLEASWEPACGALWDSRAAEAVCRALGCGGAEAASQLAPPTPELPPPPAAGNTSVAANATLAGAPALLCSGAEWRLCEVVEHACRSDGRRARVTCAENRALRLVDGGGACAGRVEMLEHGEWGSVCDDTWDLEDAHVVCRQLGCGWAVQALPGLHFTPGRGPIHRDQVNCSGAEAYLWDCPGLPGQHYCGHKEDAGAVCSEHQSWRLTGGADRCEGQVEVHFRGVWNTVCDSEWYPSEAKVLCQSLGCGTAVERPKGLPHSLSGRMYYSCNGEELTLSNCSWRFNNSNLCSQSLAARVLCSASRSLHNLSTPEVPASVQTVTIESSVTVKIENKESRELMLLIPSIVLGILLLGSLIFIAFILRAKFSRSAETAANLQDPNQLYNELNLGRREEYDVLEKKRARDPEMGGKQQRRRNPQEGVYNALQKDKMAEAYSEIGTKGERRRGKGHDGLYQGLSTATKDTYDALHMQTLAPRTSSGEWYQNFQPPPQPPSEEQFGCPGSPSPQPDSTDNDDYDDISAA
increase of IL-2 production as compared to a control receptor lacking the CD6-derived signalling region (2B4 Reay cells): at least 2.5 fold

Kd [1]: 260 to 1820 nM
Kd [5]: 310 to 1870 nM
Kd [3]: 620 to 2820 nM
Kd [6]: 890 to 3090 nM
B4: recombinant SLP-76 SH2 domain (his-tagged) (protein, UniProt Q13094 422-530, looked up)
chain: WYVSYITRPEAEAALRKINQDGTFLVRDSSKKTTTNPYVLMVLYKDKVYNIQIRYQKESQVYLLGTGLRGKEDFLSVSDIIDYFRKMPLLLIDGKNRGSRYQCTLTHAA

co-immunoprecipitation of GADS (GADS): strongly reduced
co-immunoprecipitation of SLP-76 (SLP-76): strongly reduced
B5: CD6 Y629F: mutant form of CD6 with tyrosine Y629 substituted (protein)
chain: DQLNTSSAESELWEPGERLPVRLTNGSSSCSGTVEVRLEASWEPACGALWDSRAAEAVCRALGCGGAEAASQLAPPTPELPPPPAAGNTSVAANATLAGAPALLCSGAEWRLCEVVEHACRSDGRRARVTCAENRALRLVDGGGACAGRVEMLEHGEWGSVCDDTWDLEDAHVVCRQLGCGWAVQALPGLHFTPGRGPIHRDQVNCSGAEAYLWDCPGLPGQHYCGHKEDAGAVCSEHQSWRLTGGADRCEGQVEVHFRGVWNTVCDSEWYPSEAKVLCQSLGCGTAVERPKGLPHSLSGRMYYSCNGEELTLSNCSWRFNNSNLCSQSLAARVLCSASRSLHNLSTPEVPASVQTVTIESSVTVKIENKESRELMLLIPSIVLGILLLGSLIFIAFILLRIKGKYALPVMVNHQHLPTTIPAGSNSYQPVPITIPKEVFMLPIQVQAPPPEDSDSGSDSDYEHYDFSAQPPVALTTFYNSQRHRVTDEEVQQSRFQMPPLEEGLEELHASHIPTANPGHCITDPPSLGPQYHPRSNSESSTSSGEDYCNSPKSKLPPWNPQVFSSERSSFLEQPPNLELAGTQPAFSAGPPADDSSSTSSGEWFQNFQPPPQPPSEEQFGCPGSPSPQPDSTDNDDYDDISAA
modifications: left off: large carriers; small tags and cut ends
notes: mutant form of CD6 with tyrosine Y629 substituted

co-immunoprecipitation of GADS (GADS): strongly reduced
co-immunoprecipitation of SLP-76 (SLP-76): strongly reduced
B6: CD6 Y662F: mutant form of CD6 with tyrosine Y662 substituted (protein)
chain: B5 chain with F605Y, Y638F
modifications: left off: large carriers; small tags and cut ends
notes: mutant form of CD6 with tyrosine Y662 substituted
